Measured values: paper PMC6370856, “Peptidyl prolyl cis/trans isomerase activity on the cell surface correlates with extracellular matrix development” (Communications Biology, 2019)

Experiments:
[1] = system: Jurkat cells; test: Stability of DNA-conjugated compounds under Jurkat cell treatment (LC/MS); type: in vitro ADME; conditions: CsA-DNA 500 nM, SLF-DNA 1000 nM, two independent experiments
Description: A designed concentration of DNA-conjugated compounds (30 µL in PBS) was incubated with 30 µL of PBS or the cell on ice for 10 min, then 20 min at 37 °C, which is much longer then the viscosity assay time. All the samples were centrifuged at 1000 rpm for 3 min, and then, 30 µL of the supernatant was transferred to MS tube for LC/MS analysis (Supplementary Fig. 4).

[2] = system: mixture of Jurkat T lymphocyte and the plasma protein fibrinogen; test: Viscosity/shear rate measurement of Jurkat cells in fibrinogen solution; type: cell-based
From the text: Since PPIases can catalyze the dynamic rearrangement of the dense ECM polymer network, we speculated that PPIases could also affect the dynamic interaction between cells and the ECM. Probing the influence of transient prolyl isomerization on cell–ECM interaction is difficult. Studying cell adhesion by the treatment of PPIase inhibitors cannot distinguish extracellular and intracellular factors as well as receptor-mediated signaling due to the long assay time. In order to reflect the highly dynamic process, we measured the viscosity of plasma protein solution with cells. Blood is a shear-thinning non-Newtonian fluid, and its viscosity is largely affected by the interaction between cells and plasma proteins, for example, the coagulation process. We investigated whether the catalyzed isomerization could also influence the interaction between blood cells and plasma proteins, thus affecting the viscosity. We performed viscosity/shear rate measurements using a mixture of Jurkat T lymphocyte and the plasma protein fibrinogen.
The machine used for viscosity is the same as for stiffness measurements. To 30 µL of 4 mg mL^−1 fibrinogen, an equal volume of Jurkat cells (8 × 10^7 mL^−1 in PBS, washed two times with PBS before used; Jurkat cells ocupated around 20% of the volume) was added. The mixture was pipetted up and down six times, kept on ice for 10 min, and then transferred to the rheometer plater (25 °C) for measurements. The plate temperature was raised to 37 °C. The measurement was performed by increasing shear rate ramp liner from 100 to 1000 s^−1. Hundred data points were collected during the measurements. For each condition, two independent experiments were performed (Fig. 1c and Supplementary Fig. 3).

[3] = system: Jurkat cells; test: Cellular uptake of TAMRA compounds by Jurkat cells (flow cytometry); type: cell-based; conditions: 100 nM TAMRA compounds, 1 and 24 hours, compared with Cs9-TAMRA
Description: A final concentration of 100 nM DNA-conjugated TAMRA compounds and Cs9TAMRA was incubated with Jurkat cells for 1 h or 24 h, the cells were pelleted by centrifugation at 1000 rpm for 5 min, the pellet was washed one time with fluorescent-activated cell sorting (FACS) buffer (PBS with 1% bovine serum albumin), and resuspended in FACS buffer. BD FACS Canto™ II Flow Cytometer was used to analyze the uptake of these compounds by Jurkat cells (Supplementary Fig. 5).

[4] = PPIase activity of His-CypB immobilized on Ni-NTA silica; type: biochemical; conditions: 25 pmol immobilized on Ni-NTA silica showed a similar activity to 1 pmol free control
Description: Ten microliters of His-CypB (2.5 µM, 2 µM, 1.5 µM, and 1 µM) was incubated with 10 µL of settled Ni-NTA macroporous silica (Ni-NTA Spin Kit; Qiagen) for 30 min at 0 °C. Subsequently, 80 µL of HEPES buffer was added and incubated for another 10 min with gentle shaking. The silica was precipitated by gravity for 10 min. Eighty microliters were taken from the supernatant and measured along with the silica fraction (the remaining 20 µL) for PPIase activity. The amounts of CypB in the wells were 25, 20, 15, and 10 pmol. Additionally, the activity of 10 µL of 100 nM His-CypB in solution was measured. Three independent experiments were performed. The result is shown in Supplementary Fig. 9.

CsA-DNA: CsA-conjugated oligonucleotide, 5-amino modifier C6-CTCTTCCGATCTC (chemistry not fully specified)
area of UV absorbance at 260 nm in supernatant ([1]; Jurkat cell 4 X 107/mL treatment): 3054±270 | area of UV absorbance at 260 nm in supernatant ([1]; PBS control): 2218±11 | effect on viscosity of cell/fibrinogen mixture ([2]; Jurkat T lymphocyte and fibrinogen, shear rate 100-1000 s^-1): reduced viscosity | Viscosity Mean ([2]; shear rate 102 s-1): 3.276 mPa·s | Viscosity Mean ([2]; shear rate 112 s-1): 2.725 mPa·s | Viscosity Mean ([2]; shear rate 122 s-1): 2.3889 mPa·s | Viscosity Mean ([2]; shear rate 132 s-1): 2.173 mPa·s | Viscosity Mean ([2]; shear rate 142 s-1): 1.975 mPa·s | Viscosity Mean ([2]; shear rate 152 s-1): 1.931 mPa·s | Viscosity Mean ([2]; shear rate 162 s-1): 1.858 mPa·s | Viscosity Mean ([2]; shear rate 173 s-1): 1.71 mPa·s | Viscosity Mean ([2]; shear rate 183 s-1): 1.682 mPa·s | Viscosity Mean ([2]; shear rate 193 s-1): 1.63 mPa·s | Viscosity Mean ([2]; shear rate 203 s-1): 1.558 mPa·s | Viscosity Mean ([2]; shear rate 253 s-1): 1.438 mPa·s | Viscosity Mean ([2]; shear rate 263 s-1): 1.4013 mPa·s | Viscosity Mean ([2]; shear rate 284 s-1): 1.361 mPa·s | Viscosity Mean ([2]; shear rate 304 s-1): 1.331 mPa·s | Viscosity Mean ([2]; shear rate 334 s-1): 1.301 mPa·s | Viscosity Mean ([2]; shear rate 344 s-1): 1.29 mPa·s | Viscosity Mean ([2]; shear rate 354 s-1): 1.29 mPa·s | Viscosity Mean ([2]; shear rate 364 s-1): 1.269 mPa·s | Viscosity Mean ([2]; shear rate 374 s-1): 1.245 mPa·s | Viscosity Mean ([2]; shear rate 384 s-1): 1.237 mPa·s | Viscosity Mean ([2]; shear rate 395 s-1): 1.237 mPa·s | Viscosity Mean ([2]; shear rate 415 s-1): 1.212 mPa·s | Viscosity Mean ([2]; shear rate 425 s-1): 1.198 mPa·s | Viscosity Mean ([2]; shear rate 475 s-1): 1.142 mPa·s | Viscosity Mean ([2]; shear rate 526 s-1): 1.138 mPa·s | Viscosity Mean ([2]; shear rate 556 s-1): 1.137 mPa·s | Viscosity Mean ([2]; shear rate 576 s-1): 1.139 mPa·s | Viscosity Mean ([2]; shear rate 909 s-1): 0.9613 mPa·s | Viscosity Mean ([2]; shear rate 919 s-1): 1.096 mPa·s | Viscosity Mean ([2]; shear rate 929 s-1): 0.9906 mPa·s | Viscosity Mean ([2]; shear rate 939 s-1): 0.9737 mPa·s | Viscosity Mean ([2]; shear rate 980 s-1): 0.896 mPa·s | Viscosity Mean ([2]; shear rate 990 s-1): 0.87 mPa·s | Viscosity Mean ([2]; shear rate 1000 s-1): 0.9112 mPa·s | cell entry / uptake by Jurkat cells [3]: do not enter into cells

His-CypB: recombinant His-tagged cyclophilin B, immobilized on Ni-NTA macroporous silica
catalytic activity of immobilized enzyme versus free enzyme in solution [4]: diminished catalytic activity
